Measurements published in PMC4963854 (2016).

Columns and labels:
Fluo-Ia = Fluo-Ia (Streptococcus pyogenes); experiment: fluorescence polarization
Fluo-IIa = Fluo-IIa (Streptococcus pyogenes); experiment: fluorescence polarization

B1: Epsilon antitoxin (protein)
chain: AVTYEKTFEIEIINELSASVYNRVLNYVLNHELNKNDSQLLEVNLLNQLKLAKRVNLFDYSLEELQAVHEYWRSMNRYSKQVLNKEKVA
Question: How did the Kd (Fluo-Ia) turn out when B1 was run?
Answer: 74.5 nM

Question: What about the Kd (Fluo-IIa) of the same binder?
Answer: 170 nM
